Test results reported in paper PMC11365994 (Communications Biology, 2024).

T1: falcilysin E132Q single mutant (residues 59-1193) (Plasmodium falciparum, UniProt Q76NL8 59-1193, E132Q)
T1 sequence (looked up): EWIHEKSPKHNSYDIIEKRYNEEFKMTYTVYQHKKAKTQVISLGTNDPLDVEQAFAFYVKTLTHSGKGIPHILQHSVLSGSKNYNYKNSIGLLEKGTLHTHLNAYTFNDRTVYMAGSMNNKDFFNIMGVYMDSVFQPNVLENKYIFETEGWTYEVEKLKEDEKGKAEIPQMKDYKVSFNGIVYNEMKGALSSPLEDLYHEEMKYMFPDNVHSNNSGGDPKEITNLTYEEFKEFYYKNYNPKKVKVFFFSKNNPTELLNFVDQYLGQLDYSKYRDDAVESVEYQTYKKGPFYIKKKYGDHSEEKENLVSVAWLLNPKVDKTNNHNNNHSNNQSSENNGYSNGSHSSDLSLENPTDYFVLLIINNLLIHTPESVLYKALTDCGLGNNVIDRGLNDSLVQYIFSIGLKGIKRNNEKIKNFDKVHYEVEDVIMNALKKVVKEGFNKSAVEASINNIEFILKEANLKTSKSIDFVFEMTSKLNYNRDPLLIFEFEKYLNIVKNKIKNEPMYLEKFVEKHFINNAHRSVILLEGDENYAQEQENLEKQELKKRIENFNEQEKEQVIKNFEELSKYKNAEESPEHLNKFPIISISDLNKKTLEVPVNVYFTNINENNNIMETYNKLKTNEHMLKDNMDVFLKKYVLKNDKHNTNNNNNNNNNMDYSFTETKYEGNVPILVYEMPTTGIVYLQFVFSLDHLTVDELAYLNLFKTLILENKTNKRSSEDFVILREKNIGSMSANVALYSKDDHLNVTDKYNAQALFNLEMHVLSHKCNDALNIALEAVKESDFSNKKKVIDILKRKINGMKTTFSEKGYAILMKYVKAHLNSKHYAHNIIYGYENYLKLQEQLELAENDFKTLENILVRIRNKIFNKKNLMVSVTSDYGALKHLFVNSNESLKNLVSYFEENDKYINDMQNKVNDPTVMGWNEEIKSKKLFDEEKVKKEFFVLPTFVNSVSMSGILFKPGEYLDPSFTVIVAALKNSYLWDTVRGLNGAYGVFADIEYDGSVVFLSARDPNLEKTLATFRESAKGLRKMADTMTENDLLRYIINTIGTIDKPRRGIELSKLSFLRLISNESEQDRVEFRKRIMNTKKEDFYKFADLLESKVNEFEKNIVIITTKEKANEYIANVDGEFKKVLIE


Target: T1, falcilysin E132Q single mutant …
Experiment: ITC

| Binder | Kd [nM] |
| --- | --- |
| LSFPTTKTYFPHFD [hemoglobin α chain peptide (residues L34 to D47)] | 933 |
| VVYPWTQRFFESFGD [hemoglobin β chain peptide (residues V33 to D47)] | 499 |
